Test results from article PMC5799255, “Histone H5 is a potent Antimicrobial Agent and a template for novel Antimicrobial Peptides” (Scientific Reports, 2018).

Experiments:
Type in all cases: cell-based
[1] = test system: Escherichia coli (O157:H7); experiment: Broth microdilution assay (MIC/MBC), planktonic bacteria
Procedure: Antimicrobial activity of histone H5 against a variety of Gram-positive and Gram-negative planktonic bacteria was evaluated using a broth microdilution assay. The average minimum inhibitory concentration (MIC) and minimum bactericidal concentration (MBC) values (mean ± SD, n = 3) for six Gram-positive and four Gram-negative bacterial species are shown in Table 2. […] E. faecalis was the least susceptible to histone H5 inhibition, requiring over 32 µg/mL for complete bacterial growth inhibition which was the highest histone H5 concentration tested.
The bacterial strains tested in this study were Gram-positive bacteria (Bacillus cereus (ATCC 11778), methicillin-sensitive Staphylococcus aureus (ATCC 6538), methicillin-resistant Staphylococcus aureus (ATCC 29247), Listeria monocytogenes (ATCC 19112), Enterococcus faecalis (clinical isolate) and vancomycin-resistant Enterococcus (ATCC 51299)) and Gram-negative bacteria Escherichia coli K12 (ATCC 29425), Escherichia coli (O157:H7), Pseudomonas aeruginosa (ATCC 15442) and Salmonella typhimurium (ATCC 1535)). Bacterial colonies from glycerol stocks were plated on LB agar plates (BHI agar plates for L. monocytogenes) and incubated overnight at 37 °C. Single colonies from these plates were grown in 3 mL of LB broth (BHI broth for L. monocytogenes) overnight at 37 °C and shaken at 250 rpm. […] The bacterial suspension was pelleted at 3,000 × g, 4 °C for 10 minutes and washed with PBS (twice), and then adjusted to 10^5–10^6 CFUs/mL in PBS.
Supplementary Information
Broth microdilution assay
The protocol for this step of the project was based on established methods22. […] The microplate was incubated in the EON microplate reader overnight at 206 oscillations/min and at 37°C. […]
This assay is based on a previously described protocol22. The potential for hemolytic activity was assessed using rat red blood cells (RBCs) which were obtained from the University of Ottawa Animal Care Facility and in accordance with the University of Ottawa Animal Care

[2] = test system: Listeria monocytogenes biofilms; experiment: MBEC assay (MBEC Assay Biofilm Inoculator), anti-biofilm activity
Procedure: (§1) The anti-biofilm activity of histone H5 against P. aeruginosa and L. monocytogenes biofilms was assessed using the MBEC Assay Biofilm Inoculator (formerly the Calgary Biofilm Device (CBD)).
(§2) The preparation of the bacterial suspension was the same as described in the determination of the MIC and MBC, except that the bacterial suspension was adjusted to 10^5 CFUs/ml in LB broth (BHI broth for L. monocytogenes), not PBS. Wells of an MBEC™ Assay Biofilm Inoculator (Innovotech, Edmonton, AB), which contains pegs projecting downwards from the lid that serve as a surface for biofilm formation, were inoculated with 150 µL of bacterial suspension. The plate was incubated for 24 hours at 37 °C (110 rpm) for Pseudomonas aeruginosa bacterial biofilms or for 72 hours at 22 °C (60 rpm) for Listeria monocytogenes. Following incubation, planktonic cells were rinsed away by switching the 96-peg lid to a sterile 96-well microplate with 200 μL of sterile PBS per well. Pegs with established biofilms were incubated with 200 μL of histone H5 (dissolved in sterile water, pH 7.4), in wells of another sterile 96-well microplate containing serially two-fold dilutions of H5. Solutions of gentamicin and kanamycin served as positive controls for P. aeruginosa and L. monocytogenes, respectively, whereas sterile water (pH 7.4) served as a negative control. The device was incubated for 2 hours at 37 °C, 110 rpm for P. aeruginosa and at 22 °C, 60 rpm for L. monocytogenes. The 96-peg lid was then rinsed twice as described above and placed on a sterile 96-well microplate with 200 μL of LB broth (P. aeruginosa) or BHI broth (L. monocytogenes) per well. The microplate was sonicated for 10 minutes (P. aeruginosa) or 30 minutes (L. monocytogenes) in order to dislodge the biofilms from the pegs, after which the peg-lid was replaced with a sterile, normal lid. This microplate was incubated in the EON microplate reader overnight at 37 °C (206 oscillations/min). The EON microplate spectrophotometer with Gen5 data analysis software (BioTek, Winooski, VT, USA) was used to monitor the growth of bacteria by measuring the optical density at 600 nm every 30 minutes for 24 hours (P. aeruginosa) or 48 hours (L. monocytogenes). The lowest histone H5 concentration without visible bacterial growth was designated as the minimum biofilm eradication concentration (MBEC). Additionally, a standard curve for the number of viable bacteria in the inoculum versus bacterial growth lag time was generated, since every microplate additionally contained wells with serially ten-fold diluted bacteria obtained from the uninhibited biofilm control (sterile H2O). Bacterial growth inhibition for each histone H5 concentration tested was determined from this standard curve.

[3] = test system: Pseudomonas aeruginosa biofilms; experiment: as above; details: 2 h treatment at 37 °C; for biofilm growth inhibition (log inhibition): versus untreated control, three independent trials, P < 0.04
Procedure: as §1, §2

B1: histone H5: erythrocyte-specific linker histone purified from chicken erythrocytes, 190 amino acids (protein, UniProt P02259 2-190, looked up)
Histone H5: TESLVLSPAPAKPKRVKASRRSASHPTYSEMIAAAIRAEKSRGGSSRQSIQKYIKSHYKVGHNADLQIKLSIRRLLAAGVLKQTKGVGASGSFRLAKSDKAKRSPGKKKKAVRRSTSPKKAARPRKARSPAKKPKATARKARKKSRASPKKAKKPKTVKAKSRKASKAKKVKRSKPRAKSGARKSPKKK
MIC ([1]; broth microdilution, 3 h at 37 °C, then OD600 growth 18 h in LB broth, mean ± SD, n = 3): 4.9 ± 1.5 µg/mL
MBC ([1]; plated on LB agar, 37 °C 18 h, lowest concentration without a single colony, mean ± SD, n = 3): 4.9 ± 1.5 µg/mL
MIC ([1]; value in the figure, representative of three independent trials, each in triplicate): 6.7 µg/mL
MBEC/MIC ratio ([2]; MBEC 19.1 ± 13.1 µg/mL versus planktonic MIC): ~5 fold
MBEC ([2]; biofilm grown 72 h at 22 °C on pegs, 2 h treatment at 22 °C, recovery growth OD600 48 h in BHI broth, mean ± SD, n = 3): 19.1 ± 13.1 µg/mL
biofilm growth inhibition (log inhibition) ([3]; 32 µg/mL): 0.7 ± 0.2 log inhibition
biofilm growth inhibition (log inhibition) ([3]; 64 µg/mL): 1.6 ± 0.5 log inhibition
biofilm growth inhibition (log inhibition) ([3]; 128 µg/mL): 2.3 ± 0.9 log inhibition
MBEC ([3]; biofilm grown 24 h at 37 °C on pegs, recovery growth OD600 24 h in LB broth, highest concentration 128 µg/mL, n = 3): >128 µg/mL
